Measurements from PMC6326545.

Molecular target: rat TRPV1 ion channel (rat) (UniProt O35433)
UniProt O35433, sequence (O35433 whole entry): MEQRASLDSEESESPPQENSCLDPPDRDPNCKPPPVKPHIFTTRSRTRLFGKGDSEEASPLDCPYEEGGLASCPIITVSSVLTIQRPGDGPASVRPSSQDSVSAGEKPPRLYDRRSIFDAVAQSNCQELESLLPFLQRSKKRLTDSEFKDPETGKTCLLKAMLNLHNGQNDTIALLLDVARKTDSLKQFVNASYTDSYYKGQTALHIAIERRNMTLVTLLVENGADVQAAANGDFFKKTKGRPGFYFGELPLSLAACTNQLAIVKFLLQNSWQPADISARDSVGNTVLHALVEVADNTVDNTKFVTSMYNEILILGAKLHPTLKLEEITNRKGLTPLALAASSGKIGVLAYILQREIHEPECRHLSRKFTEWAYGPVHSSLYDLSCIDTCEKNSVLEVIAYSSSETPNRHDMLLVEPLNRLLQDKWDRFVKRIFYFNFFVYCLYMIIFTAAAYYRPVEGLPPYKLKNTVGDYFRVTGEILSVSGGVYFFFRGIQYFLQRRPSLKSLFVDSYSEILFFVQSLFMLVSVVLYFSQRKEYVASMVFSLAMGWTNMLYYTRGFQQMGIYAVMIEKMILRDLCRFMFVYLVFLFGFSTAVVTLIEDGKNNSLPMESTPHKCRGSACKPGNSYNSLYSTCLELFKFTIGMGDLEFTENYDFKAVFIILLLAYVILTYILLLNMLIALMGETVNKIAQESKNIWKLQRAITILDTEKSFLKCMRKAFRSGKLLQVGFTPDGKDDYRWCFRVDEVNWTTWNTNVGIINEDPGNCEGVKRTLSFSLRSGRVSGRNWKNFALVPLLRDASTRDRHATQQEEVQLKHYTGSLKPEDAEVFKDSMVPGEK

Row | Substance | EC50 of TRPV1 activation (two-electrode voltage clamp, oocytes), fold over wild-type DkTx (fold over wild-type DkTx)
1 | DkTx V8A (natural protein) | 16
2 | DkTx E7A (natural protein) | 11
